In patent publication US8722052B2, “Vaccinia virus protein A46 peptide and use thereof” (priority 2008, dated 2014):

Target: T1, CD4-TLR4 (UniProt O00206+P06332)
T1 construct: forced dimerisation of TLR4 TIR domains in the absence of LPS (by overexpressing the fusion protein CD4-TLR4); CD4 (fusion partner); expressed in transfected cells; host or cells: HEK293_TLR4, transiently transfected with 50 or 100 ng CD4/TLR4-encoding plasmid
T1 sequence (P06332+O00206 with tags, fused parts or gaps): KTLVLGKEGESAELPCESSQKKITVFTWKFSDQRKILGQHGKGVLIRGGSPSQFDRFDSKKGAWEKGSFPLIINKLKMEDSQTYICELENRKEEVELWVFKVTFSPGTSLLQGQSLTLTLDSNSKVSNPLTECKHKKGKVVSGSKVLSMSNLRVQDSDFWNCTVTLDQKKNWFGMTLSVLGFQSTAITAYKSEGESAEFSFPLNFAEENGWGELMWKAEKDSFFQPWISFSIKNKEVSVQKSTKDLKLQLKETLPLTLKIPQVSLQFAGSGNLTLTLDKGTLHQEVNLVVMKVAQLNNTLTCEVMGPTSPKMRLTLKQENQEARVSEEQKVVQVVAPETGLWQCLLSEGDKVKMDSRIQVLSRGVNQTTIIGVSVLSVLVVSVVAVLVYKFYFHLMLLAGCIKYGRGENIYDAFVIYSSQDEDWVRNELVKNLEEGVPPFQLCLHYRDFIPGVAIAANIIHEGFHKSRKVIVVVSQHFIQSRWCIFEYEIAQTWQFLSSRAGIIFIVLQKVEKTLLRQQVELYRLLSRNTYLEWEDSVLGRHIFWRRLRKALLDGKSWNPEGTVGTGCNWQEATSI
Assay: ligand-independent NFκB activation by overexpressed CD4-TLR4 in HEK293_TLR4 cells
Format: cell-based
Conditions: 50 or 100 ng CD4/TLR4 plasmid, peptide 5 or 25 μM 2 or 9 hours after transfection
Description: FIGS. 24A and B are bar charts showing the effect of A464 on ligand-independent TLR4 signalling in HEK293 cells. HEK293_TLR4 cells were seeded in 96 well plate (1.5×10^5 cells/ml) 24 hours before transfection with NFκB-luciferase and TK-Renilla reporter gene plasmids. NFκB activation was stimulated by transfecting either 50 or 100 ng of CD4/TLR4-encoding plasmid or by stimulating with 10 ng/ml LPS. The total amount of plasmid DNA transfected into the cells was made up to 230ng by adding pcDNA. A464 (SEQ ID NO. 20) was added to the cells at a concentration of 5 or 25 μM 2 hours (A) or 9 hours (B) after the transfection or LPS-stimulation. Cells were harvested and assayed for NFκB activation by reporter gene assay 24 hours post-transfection. No peptides were added to the control wells (black bars). Data is representative of two experiments, each performed in triplicate and is expressed as mean fold induction±s.d. relative to control levels;
HEK293 cells were transfected using GeneJuice® a proprietary non-toxic transfection reagent. 200 μl/well cells at a density of 1×10^5 cells/ml were seeded the day before transfection. 0.8 μl of GeneJuice was mixed with 9.2 μl of serum-free DMEM (SFM) per transfection and incubated for 5 min at room temperature before adding the appropriate amount of the plasmid DNA. […] Luciferase activity was analysed using a luminometer. […]

KYSFKLILAEYRRRRRRRRR [Peptide A464]
inhibition of NFκB activated by forced dimerisation of TLR4 TIR domains (CD4-TLR4): insensitive to inhibition
